According to patent publication US20220033501A1 (SHANGHAI PHARMAEXPLORER, published 2022):
Numbering of substitutions follows the chain as printed. One block for each binder: values may come before it.

Tests used:
[1] = target: T1, monkey TIM-3 extracellular domain protein with hFc tag (cTIM-3-hFc) (monkey); assay: ELISA, coated monkey TIM-3 ECD protein, 0.6667 nM antibody
T1 construct: not shown: human IgG Fc fragment (hFc) of the pCpC vector
T1 chain: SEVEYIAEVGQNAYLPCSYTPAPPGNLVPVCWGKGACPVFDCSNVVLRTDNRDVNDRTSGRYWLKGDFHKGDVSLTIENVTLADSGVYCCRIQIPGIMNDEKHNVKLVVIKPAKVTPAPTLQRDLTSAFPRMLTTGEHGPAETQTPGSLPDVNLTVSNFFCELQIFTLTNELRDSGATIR

[2] = target: T2, human TIM-3 extracellular domain protein with hFc tag (hTIM-3-hFc) (human, UniProt Q8TDQ0 22-200); assay: ELISA, coated human TIM-3 ECD protein, 0.0007 nM antibody
T2 construct: not shown: human IgG Fc fragment (hFc) of the pCpC vector
T2 sequence: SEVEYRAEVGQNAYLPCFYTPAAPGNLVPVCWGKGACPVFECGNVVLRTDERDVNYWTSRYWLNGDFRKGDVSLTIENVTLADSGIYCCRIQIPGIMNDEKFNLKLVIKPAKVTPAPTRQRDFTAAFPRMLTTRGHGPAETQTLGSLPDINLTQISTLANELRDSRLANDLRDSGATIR

[3] = target: T3, monkey TIM-3 on CHOK1 stable cell line (CHOK1-cTIM-3) (monkey); assay: FACS, CHOK1-cTIM-3 cells, 0.32 nM antibody
T3 chain: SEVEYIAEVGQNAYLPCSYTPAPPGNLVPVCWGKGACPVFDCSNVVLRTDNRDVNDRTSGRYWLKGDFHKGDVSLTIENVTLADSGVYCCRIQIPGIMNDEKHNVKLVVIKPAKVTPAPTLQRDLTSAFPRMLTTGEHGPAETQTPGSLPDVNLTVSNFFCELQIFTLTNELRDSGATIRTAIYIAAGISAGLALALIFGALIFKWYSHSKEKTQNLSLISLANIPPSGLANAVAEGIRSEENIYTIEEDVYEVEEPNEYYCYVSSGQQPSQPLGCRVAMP

[4] = target: T4, human TIM-3 on CHOK1 stable cell line (CHOK1-hTIM-3) (human, UniProt Q8TDQ0 22-301); assay: FACS, CHOK1-hTIM-3 cells, 0.013 nM antibody
T4 sequence: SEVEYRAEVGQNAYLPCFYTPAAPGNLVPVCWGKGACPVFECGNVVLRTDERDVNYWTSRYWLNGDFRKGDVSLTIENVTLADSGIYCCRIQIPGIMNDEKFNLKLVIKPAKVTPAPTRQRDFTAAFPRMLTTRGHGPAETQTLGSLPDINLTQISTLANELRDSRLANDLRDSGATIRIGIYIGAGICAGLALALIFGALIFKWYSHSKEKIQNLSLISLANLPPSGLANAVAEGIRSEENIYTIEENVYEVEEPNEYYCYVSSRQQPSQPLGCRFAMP

[5] = target: T4, human TIM-3 on CHOK1 stable cell line …; assay: FACS, CHOK1-hTIM-3 cells, 1.6 nM antibody

OD450 [1]: 2.46
OD450 [2]: 0.11
Mean fluorescence intensity [3]: 52.7
Mean fluorescence intensity [4]: 9.7
Mean fluorescence intensity [5]: 282
B1: 7A4F10 fully human TIM-3 antibody (human IgG4, kappa) (antibody, V domains shown)
VH: EVQLLESGGGLVQPGGSLRLSCAASGFTFRTHLISWVRQAPGKGLEWVAAITGSGGSTYYADSVKGRFIISRDNSKNTLFLQMNSLRAEDTAVYYCAKDGGSGSYDDFWGQGTLVTVSS
VL: ETVLTQSPVTLSLSPGERATLSCRASQSVGSYLAWYQQKPGQAPRLLIYDASNRATGIPARFSGSGSGTDFTLTISSLEPEDFAVYYCQQRSNWPPTFGQGTKVEIK

OD450 [1]: 3.16
OD450 [2]: 0.11
Mean fluorescence intensity [3]: 127
Mean fluorescence intensity [4]: 11.6
Mean fluorescence intensity [5]: 232
B2: 18D2H2 fully human TIM-3 antibody (human IgG4, kappa) (antibody, V domains shown)
VH: EVQLVESGGDLVQPGGSLRLSCAASGFTFSTYWMTWVRQAPGRGLEWVANIKQDGSAKYYVDSVKGRFTLSRDDAKNSLYLQMNSLRAEDTAVYYCARGSNWFDYWGQGTLVTVSS
VL: ETVMTQSPATLSVSPGERATLSCRANQNVYSNLAWYQQKPGQAPRLLIYDASTRATGFPARFSGSGSGTEFTLTISSLQSEDFAVYYCQQYNNWPLTFGGGTKVEIK

OD450 [1]: 3.23
OD450 [2]: 0.1
Mean fluorescence intensity [3]: 132
Mean fluorescence intensity [4]: 9.2
Mean fluorescence intensity [5]: 191
B3: 39E5H1 fully human TIM-3 antibody (human IgG4, kappa) (antibody, V domains shown)
VH: EVQLVESGGGLVQPGGSLRLSCAASGFTFSSYWMSWVRQAPGKGLEWVANIKRGGSERYYVDSVKGRFTISGDNAKNSVYLQMNSLRAEDTAVYYCARGSNWFDPWGQGTLVTVSS
VL: B2 VL with T10I, N26S, N28S, P40L, F58I, L96I, G100Q, K103R, V104L

OD450 [1]: 3.37
OD450 [2]: 0.11
Mean fluorescence intensity [3]: 109
Mean fluorescence intensity [4]: 9.2
Mean fluorescence intensity [5]: 212
B4: 34B6D8 fully human TIM-3 antibody (human IgG4, kappa) (antibody, V domains shown)
VH: B3 VH with S31T, S35T, G44R, R53Q, S56G, E57D, R58K, G72T, V79L
VL: EIVMTQSPATLSMSPGERATLSCRASQSVYDNLAWYQQKPGQAPRLLIYGASTRATGIPARFSGSGSGTEFTLTISSLQSEDFALYYCQQYTHWPITFGQGTRLEIK
